Results on 94 variants are retold here after the supplement of paper PMC10567573.

First the molecules themselves.
B1: RSPH3 (parent)
chain: KAASLARNLAKRRRTYLGGAAGRS
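Note: lentivirally expressed fusions sorted by FACS into six bins by GFP to DsRed ratio, PSI derived from sequencing read proportions per bin multiplied by bin number.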

The variants in this data set derive from B1. Put plainly: protein stability index of a GFP-peptide fusion (GPS, HEK-293T) (PSI 1-6); higher = more stable. Particulars: c terminus: a fixed tail appended.
For the variant KAASCARNLAKRRRTYLGGAAGRS [L5C], the protein stability index was 2.89.
Take KAASDARNLAKRRRTYLGGAAGRS [L5D]: the protein stability index was found to be 4.65.
Regarding KAASQARNLAKRRRTYLGGAAGRS [L5Q], the protein stability index came out at 4.14.
For the variant KAASWARNLAKRRRTYLGGAAGRS [L5W], the protein stability index turned out to be 2.58.
In the case of KAASLARNLAKRRRTYLGGAPGRS [A21P] it was 2.68; in that of KAASLARNLAKRRRTYLGGARGRS [A21R], 1.71.
As for KAASLARNLAKRRRTYLGGAVGRS [A21V], the protein stability index is 2.25.
For the variant KAASLARNLAKRRRTYLGGAWGRS [A21W], the protein stability index is 1.7.
As to KAASLARNLAKRRRTYLGGAIGRS [A21I], the protein stability index turned out to be 1.91.
For the variant KAASLARNLAKRRRTYLGGAEGRS [A21E], the protein stability index was found to be 3.14.
As for KAASLARNLAKRFRTYLGGAAGRS [R13F], the protein stability index was 3.92.
As for KAASLARNLAKRGRTYLGGAAGRS [R13G], the protein stability index came out at 2.11.
With KAASLARNLAKRMRTYLGGAAGRS [R13M] the figure was 3.77.
As to KAASLARNLAKRWRTYLGGAAGRS [R13W], the protein stability index came out at 2.91.
Consider KAASLARNLAKRARTYLGGAAGRS [R13A], for which the protein stability index is 1.51.
With KAASLARNLAARRRTYLGGAAGRS [K11A] the figure was 1.64; with KAASLARNLARRRRTYLGGAAGRS [K11R], 2.91; with KAASLARNLAKRRRTYLGGTAGRS [A20T], 2.35.
KAASLARNLAKRRRTYLGGRAGRS [A20R]: the protein stability index worked out at 2.98.
As to KAASLARNLAKRRRTYLGGGAGRS [A20G], the protein stability index worked out at 3.39.
With KAASLARNLAKRRRTYLGGWAGRS [A20W], the protein stability index came to 2.48.
On to KAASLARNLAKRRGTYLGGAAGRS [R14G], for which the protein stability index turned out to be 1.73.
With KAASLARNLAKRRETYLGGAAGRS [R14E] the figure was 2.66; with KAASLARNLAKRRNTYLGGAAGRS [R14N], 1.99.
For the variant KAASLARNLAKRRFTYLGGAAGRS [R14F], the protein stability index worked out at 1.02.
With KAASLARNLAKRRDTYLGGAAGRS [R14D], the protein stability index was found to be 1.41.
In the case of KAASLARNLAKRRSTYLGGAAGRS [R14S] it was 3.11; in that of KAASLARNLAKRRVTYLGGAAGRS [R14V], 2.24; in that of KAASLARNLAKRRCTYLGGAAGRS [R14C], 2.96.
As for KAASLARNKAKRRRTYLGGAAGRS [L9K], the protein stability index was 4.94.
In the case of KAASLARNLAKRRRTGLGGAAGRS [Y16G] it was 3.03.
On to KAASLARNLAKRRRTELGGAAGRS [Y16E], for which the protein stability index is 1.86.
In the case of KAASLARNLAKRRRTHLGGAAGRS [Y16H] it was 3.32; in that of KAASLARNLAKRRRTKLGGAAGRS [Y16K], 2.49; in that of KAASLARNLAKRRRTVLGGAAGRS [Y16V], 2.17.
Consider FAASLARNLAKRRRTYLGGAAGRS [K1F], for which the protein stability index worked out at 1.47.
Regarding CAASLARNLAKRRRTYLGGAAGRS [K1C], the protein stability index was 1.87.
With GAASLARNLAKRRRTYLGGAAGRS [K1G] the figure was 3.77; with WAASLARNLAKRRRTYLGGAAGRS [K1W], 2.29.
For HAASLARNLAKRRRTYLGGAAGRS [K1H], the protein stability index was 2.49.
Take AAASLARNLAKRRRTYLGGAAGRS [K1A]: the protein stability index came to 1.98.
Turning to KAASLARNLAKRRRTYLGGAANRS [G22N], the protein stability index was found to be 3.29.
Take KAASLARNLAKRRRTYLGGAADRS [G22D]: the protein stability index was 2.03.
Turning to KAASLARNLAKRRRTYLGGAALRS [G22L], the protein stability index was 2.42.
In the case of KAASLARNLAKRRRTYLGGAAKRS [G22K], the protein stability index turned out to be 2.05.
Consider KAASLARNLAKRRRTYLGGAAGRF [S24F], for which the protein stability index worked out at 1.94.
In the case of KAASLARNLAKRRRTYLGGAAGRC [S24C] it was 2.11.
Regarding KAASLARNLAKRRRTYLGGAAGRR [S24R], the protein stability index came to 2.32.
For KAASLARNLAKRRRTYLGGAAGRH [S24H], the protein stability index was 2.41.
For KAASLARNLAKRRRTYLGGAAGRK [S24K], the protein stability index was found to be 2.
On to KAASLARNLAKRRRTYLGGAAGRE [S24E], for which the protein stability index came out at 2.01.
Regarding KAASLARNLAKQRRTYLGGAAGRS [R12Q], the protein stability index stood at 2.24.
With KAASLARNLAKGRRTYLGGAAGRS [R12G] the figure was 2.75.
KAASLARNLAKNRRTYLGGAAGRS [R12N]: the protein stability index turned out to be 2.4.
In the case of KAASLARNLAKIRRTYLGGAAGRS [R12I], the protein stability index was determined as 2.24.
Take KAASLARNLAKFRRTYLGGAAGRS [R12F]: the protein stability index amounted to 1.68.
Turning to KAASLAGNLAKRRRTYLGGAAGRS [R7G], the protein stability index is 2.54.
For the variant KAASLASNLAKRRRTYLGGAAGRS [R7S], the protein stability index turned out to be 2.58.
Turning to KAASLATNLAKRRRTYLGGAAGRS [R7T], the protein stability index came to 2.08.
As to KRASLARNLAKRRRTYLGGAAGRS [A2R], the protein stability index amounted to 3.91.
KFASLARNLAKRRRTYLGGAAGRS [A2F]: the protein stability index was determined as 2.08.
With KTASLARNLAKRRRTYLGGAAGRS [A2T], the protein stability index stood at 3.68.
As for KAASLARDLAKRRRTYLGGAAGRS [N8D], the protein stability index is 3.23.
Regarding KAASLARGLAKRRRTYLGGAAGRS [N8G], the protein stability index stood at 3.98.
With KAASLARSLAKRRRTYLGGAAGRS [N8S] the figure was 2.88.
For the variant KAASLARFLAKRRRTYLGGAAGRS [N8F], the protein stability index worked out at 2.33.
Regarding KAASLARYLAKRRRTYLGGAAGRS [N8Y], the protein stability index came out at 3.42.
Take KAASLARLLAKRRRTYLGGAAGRS [N8L]: the protein stability index stood at 2.26.
In the case of KAASLHRNLAKRRRTYLGGAAGRS [A6H], the protein stability index stood at 2.2.
With KAASLWRNLAKRRRTYLGGAAGRS [A6W] the figure was 1.58.
As for KAASLFRNLAKRRRTYLGGAAGRS [A6F], the protein stability index worked out at 2.23.
With KAASLSRNLAKRRRTYLGGAAGRS [A6S] the figure was 3.07; with KAASLMRNLAKRRRTYLGGAAGRS [A6M], 2.52; with KAASLPRNLAKRRRTYLGGAAGRS [A6P], 3.94.
As for KAASLKRNLAKRRRTYLGGAAGRS [A6K], the protein stability index is 2.4.
Regarding KAASLARNLAKRRRTYLGFAAGRS [G19F], the protein stability index worked out at 2.03.
Turning to KAASLARNLAKRRRTYLGWAAGRS [G19W], the protein stability index was determined as 1.67.
For KAASLARNLAKRRRTYLGAAAGRS [G19A], the protein stability index is 2.32.
Turning to KAASLARNLAKRRRTYLGSAAGRS [G19S], the protein stability index turned out to be 3.14.
As to KAASLARNLAKRRRTYLGEAAGRS [G19E], the protein stability index came to 2.13.
For the variant KAASLARNLAKRRRTYLGRAAGRS [G19R], the protein stability index turned out to be 2.93.
Consider KAASLARNLAKRRRTYLGPAAGRS [G19P], for which the protein stability index worked out at 1.46.
With KAASLARNLAKRRRTYLGQAAGRS [G19Q], the protein stability index turned out to be 3.22.
Consider KAASLARNLAKRRRTYKGGAAGRS [L17K], for which the protein stability index stood at 4.17.
On to KAASLARNLAKRRRTYYGGAAGRS [L17Y], for which the protein stability index is 3.3.
For the variant KAASLARNLAKRRRTYNGGAAGRS [L17N], the protein stability index worked out at 3.18.
Take KAASLARNLAKRRRTYMGGAAGRS [L17M]: the protein stability index came out at 2.64.
As for KAASLARNLAKRRRTYSGGAAGRS [L17S], the protein stability index worked out at 2.75.
Consider KAASLARNLAKRRRTYRGGAAGRS [L17R], for which the protein stability index was determined as 3.44.
Turning to KAPSLARNLAKRRRTYLGGAAGRS [A3P], the protein stability index stood at 3.96.
Consider KARSLARNLAKRRRTYLGGAAGRS [A3R], for which the protein stability index was found to be 3.01.
For KAHSLARNLAKRRRTYLGGAAGRS [A3H], the protein stability index amounted to 3.48.
As for KAESLARNLAKRRRTYLGGAAGRS [A3E], the protein stability index came to 3.16.
Take KAQSLARNLAKRRRTYLGGAAGRS [A3Q]: the protein stability index was determined as 3.71.
